Earlier results, collected in article PMC7109197.
Like-named read-outs stand apart in the source and are kept apart here.

How the values were obtained:
Assay in all cases: NMR
[1] = target: cardiac troponin C N-domain (Homo sapiens) (UniProt P63316)
[2] = target: cardiac troponin C N-domain (Homo sapiens) (UniProt P63316); remark: listed apart in the source
[3] = target: cardiac troponin C CTD (Homo sapiens) (UniProt P63316)
[4] = target: cardiac troponin C CTD (Homo sapiens) (UniProt P63316); remark: listed apart in the source

| Kd [1] [µM] | Kd [2] [µM] | Kd [3] [nM] | Kd [4] [nM] | Substance |
| --- | --- | --- | --- | --- |
| 600 | 370 | – | – | cTnI switch peptide switch peptide (from UniProt P19429) |
| – | – | < 1000 | 3000 | cardiac troponin I 34-71 (from UniProt P19429) |
